# Experimental data as given in patent publication US20240294651A1 (KYMAB, published 2024).
# B1: CL-82574 (antibody, human IgG4 S228P, kappa)
# heavy: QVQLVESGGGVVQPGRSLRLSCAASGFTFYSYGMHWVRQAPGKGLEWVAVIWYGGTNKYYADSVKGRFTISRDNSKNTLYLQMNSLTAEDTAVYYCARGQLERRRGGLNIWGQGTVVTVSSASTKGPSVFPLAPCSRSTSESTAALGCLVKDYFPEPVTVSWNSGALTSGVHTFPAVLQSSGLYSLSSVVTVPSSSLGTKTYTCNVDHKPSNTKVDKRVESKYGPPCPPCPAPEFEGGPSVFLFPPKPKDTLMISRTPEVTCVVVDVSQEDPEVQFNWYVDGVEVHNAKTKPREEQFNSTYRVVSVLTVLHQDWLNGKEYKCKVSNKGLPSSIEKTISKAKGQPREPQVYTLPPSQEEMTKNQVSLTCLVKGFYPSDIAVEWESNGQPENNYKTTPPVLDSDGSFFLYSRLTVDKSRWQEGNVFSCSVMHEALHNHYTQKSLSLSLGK
# light: DIQMTQSPSSLSASVGDRVTITCRASQGVRDDLGWYQQKPGKAPKRLIYAASSLQSGVPSRFSGSGSGTEFTLTISSLQPEDFATYYCLQHNSYPFTFGPGTKVDIKRTVAAPSVFIFPPSDEQLKSGTASVVCLLNNFYPREAKVQWKVDNALQSGNSQESVTEQDSKDSTYSLSSTLTLSKADYEKHKVYACEVTHQGLSSPVTKSFNRGEC
# notes: Tested in human IgG4-PE format; also called CL-82574 (IgG4-PE format)
# B2: CL-83083 Fab fragment (Fab, V domains shown)
# VH: EVQLVESGGGLVQPGGSLKLSCAASGFTFSGSAMHWVRQASGKGLEWVGRIRSKANKYATAYAASVKGRFTISRDDSKNTAYVQMKSLKTEDTAVYYCTWELSNYDILTGFYYGMDVWGQGTTVTVSS
# VL: QAGLTQPPSVSKGLRQTATLTCTGNSNNVGNLGAAWLQQHQGHPPKLLSYRNNNRPSGISERFFASRSGNTASLTITGLQPEDEADYYCSAWDSSLSAWVFGGGTKLTVL
# notes: Purified Fab fragment
# B3: CL-83083 (antibody, human IgG4 S228P, lambda)
# heavy: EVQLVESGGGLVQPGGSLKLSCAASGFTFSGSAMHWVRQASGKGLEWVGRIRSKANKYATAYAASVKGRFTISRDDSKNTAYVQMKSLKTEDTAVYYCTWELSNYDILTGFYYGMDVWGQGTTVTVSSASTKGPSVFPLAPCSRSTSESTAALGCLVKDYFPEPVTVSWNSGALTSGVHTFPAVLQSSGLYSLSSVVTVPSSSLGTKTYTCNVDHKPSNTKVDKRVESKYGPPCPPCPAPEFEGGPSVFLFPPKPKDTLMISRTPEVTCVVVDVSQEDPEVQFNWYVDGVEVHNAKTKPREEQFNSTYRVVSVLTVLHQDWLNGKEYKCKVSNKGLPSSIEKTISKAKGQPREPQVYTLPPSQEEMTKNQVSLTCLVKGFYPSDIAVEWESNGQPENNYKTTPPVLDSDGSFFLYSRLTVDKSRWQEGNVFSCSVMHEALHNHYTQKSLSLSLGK
# light: QAGLTQPPSVSKGLRQTATLTCTGNSNNVGNLGAAWLQQHQGHPPKLLSYRNNNRPSGISERFFASRSGNTASLTITGLQPEDEADYYCSAWDSSLSAWVFGGGTKLTVLGQPKAAPSVTLFPPSSEELQANKATLVCLISDFSPGAVTVAWKADSSPVKAGVETTTPSKQSNNKYAASSYLSLTPEQWKSHKSYSCQVTHEGSTVKKTVAPTECS
# notes: Tested in human IgG4-PE format; lambda light chain; also called CL-83083 (IgG4-PE format)
# B4: CL-83083-2 (antibody, human IgG4 S228P, lambda)
# heavy: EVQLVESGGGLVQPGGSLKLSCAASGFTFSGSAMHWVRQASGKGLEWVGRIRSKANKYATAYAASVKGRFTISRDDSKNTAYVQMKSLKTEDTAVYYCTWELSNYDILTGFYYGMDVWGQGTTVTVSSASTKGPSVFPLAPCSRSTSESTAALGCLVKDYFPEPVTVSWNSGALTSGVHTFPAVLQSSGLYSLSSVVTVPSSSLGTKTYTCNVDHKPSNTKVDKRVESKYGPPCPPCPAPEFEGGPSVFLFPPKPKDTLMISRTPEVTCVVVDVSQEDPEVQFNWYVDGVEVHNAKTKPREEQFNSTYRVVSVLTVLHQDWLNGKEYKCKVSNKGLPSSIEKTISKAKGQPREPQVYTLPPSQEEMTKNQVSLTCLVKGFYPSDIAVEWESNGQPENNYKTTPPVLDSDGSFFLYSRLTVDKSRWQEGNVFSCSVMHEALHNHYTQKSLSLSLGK
# light: QAGLTQPPSVSKGLRQTATLTCTGNSNNVGNLGAAWLQQHQGHPPKLLSYRNNNRPSGISERFFASRSGNTASLTITGLQPEDEADYYCSAWDSSLSAWVFGGGTKLTVLGQPKAAPSVTLFPPSSEELQANKATLVCLISDFYPGAVTVAWKADSSPVKAGVETTTPSKQSNNKYAASSYLSLTPEQWKSHKSYSCQVTHEGSTVEKTVAPTECS
# notes: Same variable domains as CL-83083, different lambda constant region; tested in human IgG4-PE format; also called CL-83083-2 (IgG4-PE format)
# B5: CL-82458 (antibody, human IgG4 S228P, kappa, V domains shown)
# VH: EVQLVESGGDLVQPGGSLRLSCAASGFTFYSYAMNWVRQAPGKGLKWVSGISGSGDITYYADSVKGRFTISRDNSKNTLYLQMHSLRPEDTAIYYCAKGQLERRYYKYYGMDVWGQGTTVTVSS
# VL: DIQMTQSPSSLSASVGDRVTITCRANQGIRNDLGWYQQKPGKAPKRLIYGASSLKSGVPSRFSGSGSGTEFTLTISSLQPEDFATYYCLQQNSYPLTFGGGTKVEIKR
# notes: Tested in human IgG4-PE format; also called CL-82458 (IgG4-PE format)
# B6: CL-82458 Fab fragment (Fab, V domains shown)
# VH: EVQLVESGGDLVQPGGSLRLSCAASGFTFYSYAMNWVRQAPGKGLKWVSGISGSGDITYYADSVKGRFTISRDNSKNTLYLQMHSLRPEDTAIYYCAKGQLERRYYKYYGMDVWGQGTTVTVSS
# VL: DIQMTQSPSSLSASVGDRVTITCRANQGIRNDLGWYQQKPGKAPKRLIYGASSLKSGVPSRFSGSGSGTEFTLTISSLQPEDFATYYCLQQNSYPLTFGGGTKVEIK
# notes: Purified Fab fragment
# B7: CL-82574 Fab fragment (Fab, V domains shown)
# VH: QVQLVESGGGVVQPGRSLRLSCAASGFTFYSYGMHWVRQAPGKGLEWVAVIWYGGTNKYYADSVKGRFTISRDNSKNTLYLQMNSLTAEDTAVYYCARGQLERRRGGLNIWGQGTVVTVSS
# VL: DIQMTQSPSSLSASVGDRVTITCRASQGVRDDLGWYQQKPGKAPKRLIYAASSLQSGVPSRFSGSGSGTEFTLTISSLQPEDFATYYCLQHNSYPFTFGPGTKVDIK
# notes: Purified Fab fragment
# B8: CL-82658 Fab fragment (Fab, V domains shown)
# VH: QVQLVESGGGVVQPGRSLRLSCAASGFSFSSYGMHWVRQAPGKGLEWVAVISYDGSNKYYADSVKGRFTISRDNSKNTLYLQMNSLRGEDTAVYYCSKGSLTPRRGYYYSYGMDVWGQGTTVTVSS
# VL: DIQMTQSPSSLSASVGDRVTITCRASQGIRNDLSWYQQKPGKAPKRLIYAASSLQSGVPSRFSGSGSGTEFTLTISSLQPEDFATYYCLQHNGYPFTFGPGTKVDIK
# notes: Purified Fab fragment
# Columns and labels:
# [1] = biological target: T1, human CXCR4 (cell-expressed) (human, UniProt P61073 1-352); assay: cell-based or functional assay
# T1 sequence (P61073 whole entry): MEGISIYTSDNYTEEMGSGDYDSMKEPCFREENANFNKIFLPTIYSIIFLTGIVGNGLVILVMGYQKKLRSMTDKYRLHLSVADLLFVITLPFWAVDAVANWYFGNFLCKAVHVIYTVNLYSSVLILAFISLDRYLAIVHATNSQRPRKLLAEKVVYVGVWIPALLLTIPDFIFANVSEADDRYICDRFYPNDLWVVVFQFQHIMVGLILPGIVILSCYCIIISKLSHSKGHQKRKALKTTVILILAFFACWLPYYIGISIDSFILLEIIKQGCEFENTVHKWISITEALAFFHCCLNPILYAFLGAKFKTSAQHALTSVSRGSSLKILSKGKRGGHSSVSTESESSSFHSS
# [2] = biological target: T1, human CXCR4 (cell-expressed); assay: cell-based or functional assay; remark: listed apart in the source
# [3] = biological target: T1, human CXCR4 (cell-expressed); assay: cell-based or functional assay; remark: listed apart in the source
# [4] = biological target: T2, cynomolgus CXCR4 (cynomolgus monkey, UniProt Q28474 1-352); assay: cell-based or functional assay
# T2 sequence (Q28474 whole entry): as the sequence (P61073 whole entry) above, with M24I, N35H, K38R, R146K, N176S counted along it
# [5] = biological target: T1, human CXCR4 (cell-expressed); assay: cell-based or functional assay; remark: listed apart in the source
# [6] = biological target: T1, human CXCR4 (cell-expressed); assay: cell-based or functional assay; remark: listed apart in the source
# [7] = biological target: T1, human CXCR4 (cell-expressed); assay: cell-based or functional assay; remark: listed apart in the source
# [8] = biological target: T1, human CXCR4 (cell-expressed); assay: cell-based or functional assay; remark: listed apart in the source
# [9] = biological target: T2, cynomolgus CXCR4; assay: flow cytometry on CHO-S cells expressing cynomolgus CXCR4
# Description: Cynomolgus monkey CXCR4 expressing CHO-S cells were plated at 100 uL/well of cells at 1 million of cells/mL (0.1 million of cells/well) into a 96 well V-bottom plate (Greiner). Plates were centrifuged at 300×g for 3 min at 4° C. and supernatant discarded. […] Primary antibody dilutions were added to cells (50 μL/well) and cell pellets resuspended by pipetting. Plates was incubated for 1 h at 4° C. 100 μL/well of PBS, was added and plates centrifuged at 300×g for 3 min at 4° C. and supernatant discarded. This step was repeated twice. […] Cells were resuspended by pipetting. Plates were incubated for 1 h at 4° C. 100 μL/well PBS, was added and plates centrifuged at 300×g for 3 min at 4° C. and supernatant discarded. This step was repeated twice. Finally, cells were resuspended in 100 μL/well of PBS and analysed on CytoFLEX (Beckman Coulter).
# Binding of antibodies to cynomolgus CXCR4 expressed on CHO-S cells was analysed by gating the main cell population using forward and side scatter (Flow Jo, Flow Jo LLC) to allow for doublet discrimination. […] EC₅₀ values were calculated by transforming the data and fitting a 4-parameter logistic regression curve to each antibody titration.
# [10] = biological target: T3, terbium-labelled SNAP-CXCR4 on HEK-293 cells (Cisbio C1TT1CXCR4) (human, UniProt P61072 1-352 (Pan troglodytes entry), terbium label on the SNAP tag); assay: TR-FRET (Tag-lite) competition with AlexaFluor 647-CXCL12 on terbium-labelled SNAP-CXCR4 HEK-293 cells
# T3 construct: Bought assay-ready cells; also called CXCR4 expressing cells; not shown: SNAP tag
# T3 sequence (P61072 whole entry): as the sequence (P61073 whole entry) above
# [11] = biological target: T4, human CXCR7 (human, UniProt P25106 1-362); assay: flow cytometry on CHO-S cells expressing human CXCR7, Alexa Fluor 647 secondary antibody, GeoMean (647 nm)
# T4 construct: Expressed on CHO-S cells
# T4 sequence (P25106 whole entry): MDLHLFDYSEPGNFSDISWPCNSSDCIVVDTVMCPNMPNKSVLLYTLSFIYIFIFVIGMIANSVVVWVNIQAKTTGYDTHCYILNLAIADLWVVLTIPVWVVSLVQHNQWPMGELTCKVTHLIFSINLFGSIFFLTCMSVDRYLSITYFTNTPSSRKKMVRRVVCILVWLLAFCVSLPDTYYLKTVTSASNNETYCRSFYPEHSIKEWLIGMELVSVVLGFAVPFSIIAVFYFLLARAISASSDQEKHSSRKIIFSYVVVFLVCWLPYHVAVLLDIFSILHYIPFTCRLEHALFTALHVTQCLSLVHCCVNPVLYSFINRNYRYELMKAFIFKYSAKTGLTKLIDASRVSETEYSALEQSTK
# Description: CXCR7 expressing CHO-S cells were plated at 100 μL/well of cells at 1 million of cells/mL (0.1 million of cells/well) into a 96 well V-bottom plate (Greiner). Plates were centrifuged at 300×g for 3 min at 4° C. and supernatant discarded. […] Primary antibody dilutions were added to cells (100 μL/well) and cell pellets resuspended by pipetting. Plate was incubated for 1 h at 4° C. 100 μL/well of PBS, was added and plates centrifuged at 300×g for 3 min at 4° C. and supernatant discarded. This step was repeated twice. […] Cells were resuspended by pipetting. Plate was incubated for 1 h at 4° C. 100 μL/well of PBS, was added and plates centrifuged at 300×g for 3 min at 4° C. and supernatant discarded. This step was repeated twice. Finally, cells were resuspended in 100 μL/well of PBS and analysed on CytoFLEX (Beckman Coulter).
# Binding of antibodies to CXCR7 expressed on CHO-S cells was analysed by gating the main cell population using forward and side scatter (Flow Jo, Flow Jo LLC) to allow for doublet discrimination.
# [12] = biological target: T5, CXCR4 StaR nanodiscs; assay: SPR (Biacore T200), IgG4-PE antibody captured by anti-IgG on CM5, CXCR4 StaR nanodiscs at 250 nM as analyte, 25 C, 1:1 model; N = 1
# T5 construct: Purified receptor in lipid-protein nanodiscs; also called StaR CXCR4; thermostabilised CXCR4
# Description: Anti-IgG antibodies were immobilised on chip CM5 (GE Healthcare) by amine coupling. […] A channel with no anti-CXCR4 antibodies captured was used as a reference. […] The blank-subtracted sensorgrams were fitted to the 1:1 interaction model using the Biacore T200 evaluation software. The assay was run at 25° C. using 0.01 M HEPES pH 7.4, 0.15 M NaCl as running buffer.
# [13] = biological target: T6, biotinylated CXCR4-virus like particle (Integral Molecular, Lot INT-1793B) (human, UniProt P61073 1-352, VLP biotinylated, sites not stated); assay: SPR (Biacore 8K), biotinylated CXCR4 VLP captured on SA chip, Fab as analyte, 25 C, 1:1 model
# T6 construct: also called hCXCR4 VLP; CXCR4 VLP
# T6 sequence (P61073 whole entry): as the sequence (P61073 whole entry) above
Binder,"% Max Inhibition, cAMP HTRF assay, CXCR4 BacMam HEK-293 cells [1] [%]","IC50, cAMP HTRF assay, CXCR4 BacMam HEK-293 cells, 5.5 nM CXCL12 [1] [nM]","% Max Inhibition, beta-arrestin reporter assay, Tango CXCR4-bla U2OS cells [2] [%]","IC50, beta-arrestin reporter assay, Tango CXCR4-bla U2OS cells, 30 nM CXCL12 [2] [nM]","Max Signal (Total Overlap Object Area), internalisation on Ramos cells, live-cell imaging [3] [µm^2 per image]","% Maximum Inhibition, cAMP HTRF assay, cyno CXCR4 BacMam HEK-293 cells [4] [%]","IC50, cAMP HTRF assay, cyno CXCR4 BacMam HEK-293 cells [4] [nM]","% effect (remaining % of CXCL12 response), DMR assay, human T-cells [5] [%]","IC50, label-free DMR assay, isolated human T-cells, EC80 CXCL12 [5] [nM]","IC50 n = 1, Jurkat chemotaxis towards 30 nM CXCL12 (IncuCyte) [6] [nM]","IC50 n = 2, Jurkat chemotaxis towards 30 nM CXCL12 (IncuCyte) [6] [nM]","IC50 n = 3, Jurkat chemotaxis towards 30 nM CXCL12 (IncuCyte) [6] [nM]","Mean IC50, Jurkat chemotaxis towards 30 nM CXCL12 (IncuCyte) [6] [nM]","% of max migration at 120 nM Ab, primary naïve T-cell trans-well migration [7] [%]","IC50 of antibody in presence of 30 nM CXCL12, human T-cell transwell chemotaxis [8]",% Max Inhibition [10] [%],IC50 [10] [nM],Kd [13] [nM],koff [13] [s⁻¹],kon [13] [M⁻¹ s⁻¹],other results
B1,96,21,99.5,0.14,18100,90,1.2,0.68,2.09,0.32,0.62,0.63,0.52,5.44,0.21 not printed (nM assumed),98,0.63,–,–,–,"IC50, primary naïve T-cell trans-well migration [7]: 0.95 nM; EC50 [9]: 3.5 nM; binding result [11]: no binding (tested: log(M) about -6.9 (about 1.2e-7 M)); Kd [12]: 8 nM; koff [12]: 0.00088 s⁻¹; kon [12]: 110000 M⁻¹ s⁻¹"
B2,–,–,–,–,–,–,–,–,–,–,–,–,–,–,–,–,–,1.86,0.00102,546000,–
B3,80,36,98.9,0.43,9670,84,11.8,5.1,3.58,0.47,0.43,0.34,0.41,25.7,0.35 not printed (nM assumed),96,1.74,–,–,–,"IC50, primary naïve T-cell trans-well migration [7]: 1.55 nM; EC50 [9]: 11 nM; binding result [11]: no binding (tested: log(M) about -6.9 (about 1.2e-7 M)); Kd [12]: 7.1 nM; koff [12]: 0.00097 s⁻¹; kon [12]: 140000 M⁻¹ s⁻¹"
B4,93,44,96.9,0.79,–,–,–,4.4,3.98,–,–,–,–,–,–,97,3.92,–,–,–,–
B5,88,40,102,0.31,20800,78,2,2,12.1,2.18,3.43,1.66,2.42,17.6,0.26 not printed (nM assumed),99,0.79,–,–,–,EC50 [9]: 2.2 nM; binding result [11]: no binding (tested: log(M) about -6.9 (about 1.2e-7 M)); Kd [12]: 7.5 nM; koff [12]: 0.00046 s⁻¹; kon [12]: 61000 M⁻¹ s⁻¹
B6,–,–,–,–,–,–,–,–,–,–,–,–,–,–,–,–,–,1.26,0.00111,887000,–
B7,–,–,–,–,–,–,–,–,–,–,–,–,–,–,–,–,–,0.52,0.000481,927000,–
B8,–,–,–,–,–,–,–,–,–,–,–,–,–,–,–,–,–,0.69,0.000423,616000,–
